According to patent US20030049729:

Legend:
[1] = target: T1, human fibrinogen fragments, P02671
T1 chain 1: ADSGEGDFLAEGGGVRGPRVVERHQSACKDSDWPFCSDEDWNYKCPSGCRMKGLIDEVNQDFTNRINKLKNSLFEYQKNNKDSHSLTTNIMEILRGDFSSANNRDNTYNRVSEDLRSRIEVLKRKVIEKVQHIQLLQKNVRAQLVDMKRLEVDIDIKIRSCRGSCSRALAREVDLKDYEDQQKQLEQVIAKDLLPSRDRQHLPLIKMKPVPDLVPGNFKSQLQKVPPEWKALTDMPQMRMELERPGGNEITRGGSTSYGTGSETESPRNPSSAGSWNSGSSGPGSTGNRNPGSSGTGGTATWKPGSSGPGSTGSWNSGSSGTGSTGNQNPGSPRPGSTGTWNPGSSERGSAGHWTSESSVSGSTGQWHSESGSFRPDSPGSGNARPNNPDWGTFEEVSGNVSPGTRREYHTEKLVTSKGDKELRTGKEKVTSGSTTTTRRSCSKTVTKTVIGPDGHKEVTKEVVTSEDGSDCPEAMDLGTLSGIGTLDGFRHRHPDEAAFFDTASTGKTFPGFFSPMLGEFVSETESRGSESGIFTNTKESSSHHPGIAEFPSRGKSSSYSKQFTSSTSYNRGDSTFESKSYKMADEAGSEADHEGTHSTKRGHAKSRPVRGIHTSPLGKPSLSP
T1 chain 2: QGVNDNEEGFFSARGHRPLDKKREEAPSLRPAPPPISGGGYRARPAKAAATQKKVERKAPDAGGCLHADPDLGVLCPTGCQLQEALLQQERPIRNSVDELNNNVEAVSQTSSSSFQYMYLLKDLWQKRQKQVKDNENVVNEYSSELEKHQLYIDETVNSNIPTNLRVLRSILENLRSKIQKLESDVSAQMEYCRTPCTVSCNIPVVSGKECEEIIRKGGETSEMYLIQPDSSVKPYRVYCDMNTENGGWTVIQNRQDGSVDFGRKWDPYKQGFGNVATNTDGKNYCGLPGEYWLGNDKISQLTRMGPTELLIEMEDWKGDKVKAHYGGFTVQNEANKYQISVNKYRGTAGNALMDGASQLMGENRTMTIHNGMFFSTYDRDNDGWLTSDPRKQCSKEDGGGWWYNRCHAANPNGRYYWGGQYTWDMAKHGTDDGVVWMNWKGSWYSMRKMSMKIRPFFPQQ
T1 chain 3: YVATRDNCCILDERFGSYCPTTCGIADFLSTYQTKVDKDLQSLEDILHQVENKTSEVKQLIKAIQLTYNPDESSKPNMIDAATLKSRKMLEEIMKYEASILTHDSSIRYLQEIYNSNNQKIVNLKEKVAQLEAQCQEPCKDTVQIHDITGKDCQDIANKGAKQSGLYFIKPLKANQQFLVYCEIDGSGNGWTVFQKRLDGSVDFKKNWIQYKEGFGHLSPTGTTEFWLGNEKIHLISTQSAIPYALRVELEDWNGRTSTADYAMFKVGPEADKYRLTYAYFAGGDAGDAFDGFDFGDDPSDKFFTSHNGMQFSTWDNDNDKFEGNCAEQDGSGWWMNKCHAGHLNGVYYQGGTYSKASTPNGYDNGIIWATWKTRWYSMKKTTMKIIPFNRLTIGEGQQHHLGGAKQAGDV

plasminogen, sequence (P00747 20-810): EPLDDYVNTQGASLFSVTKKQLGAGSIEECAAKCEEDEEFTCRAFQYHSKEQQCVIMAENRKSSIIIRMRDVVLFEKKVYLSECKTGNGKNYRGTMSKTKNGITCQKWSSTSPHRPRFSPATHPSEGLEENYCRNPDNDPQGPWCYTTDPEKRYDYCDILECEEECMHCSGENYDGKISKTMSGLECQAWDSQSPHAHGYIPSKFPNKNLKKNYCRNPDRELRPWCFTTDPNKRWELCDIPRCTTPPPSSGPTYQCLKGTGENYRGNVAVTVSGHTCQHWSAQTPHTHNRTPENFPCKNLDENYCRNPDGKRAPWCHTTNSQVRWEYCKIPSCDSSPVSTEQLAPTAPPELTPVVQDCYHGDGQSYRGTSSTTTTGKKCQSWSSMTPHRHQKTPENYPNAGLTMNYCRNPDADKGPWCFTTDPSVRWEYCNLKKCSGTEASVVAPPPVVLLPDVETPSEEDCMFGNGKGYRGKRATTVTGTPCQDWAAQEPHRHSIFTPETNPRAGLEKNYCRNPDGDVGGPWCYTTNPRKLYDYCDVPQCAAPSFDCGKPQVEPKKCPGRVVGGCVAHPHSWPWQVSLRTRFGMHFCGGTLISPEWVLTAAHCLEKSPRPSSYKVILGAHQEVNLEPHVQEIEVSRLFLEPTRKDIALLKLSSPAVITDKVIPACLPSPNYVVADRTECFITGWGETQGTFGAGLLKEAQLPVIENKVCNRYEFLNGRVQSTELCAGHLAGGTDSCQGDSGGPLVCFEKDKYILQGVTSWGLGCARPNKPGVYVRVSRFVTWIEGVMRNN

B1: standard melanoma tPA 86/670 (protein)
chain: SYQVICRDEKTQMIYQQHQSWLRPVLRSNRVEYCWCNSGRAQCHSVPVKSCSEPRCFNGGTCQQALYFSDFVCQCPEGFAGKCCEIDTRATCYEDQGISYRGTWSTAESGAECTNWNSSALAQKPYSGRRPDAIRLGLGNHNYCRNPDRDSKPWCYVFKAGKYSSEFCSTPACSEGNSDCYFGNGSAYRGTHSLTESGASCLPWNSMILIGKVYTAQNPSAQALGLGKHNYCRNPDGDAKPWCHVLKNRRLTWEYCDVPSCSTCGLRQYSQPQFRIKGGLFADIASHPWQAAIFAKHRRSPGERFLCGGILISSCWILSAAHCFQERFPPHHLTVILGRTYRVVPGEEEQKFEVEKYIVHKEFDDDTYDNDIALLQLKSDSSRCAQESSVVRTVCLPPADLQLPDWTECELSGYGKHEALSPFYSERLKEAHVRLYPSSRCTSQHLLNRTVTDNMLCAGDTRSGGPQANLHDACQGDSGGPLVCLNDGRMTLVGIISWGLGCGQKDVPGVYTKVTNYLDWIRDNMRP
enzymatic activity without fibrinogen [1]: standard melanoma tPA showed some activity | copolymerized plasminogen polyacrylamide gel electrophoresis (plasminogen): The positive control lane of standard melanoma tPA also demonstrated enzymatic activity at 66 and 72 kDa positions

B2: recombinant-K2S (r-K2S), kringle 2 plus serine protease portion of tPA, expressed in non-gpIII fusion form in XM[K2S] (protein)
chain: SEGNSDCYFGNGSAYRGTHSLTESGASCLPWNSMILIGKVYTAQNPSAQALGLGKHNYCRNPDGDAKPWCHVLKNRRLTWEYCDVPSCSTCGLRQYSQPQFRIKGGLFADIASHPWQAAIFAKHRRSPGERFLCGGILISSCWILSAAHCFQERFPPHHLTVILGRTYRVVPGEEEQKFEVEKYIVHKEFDDDTYDNDIALLQLKSDSSRCAQESSVVRTVCLPPADLQLPDWTECELSGYGKHEALSPFYSERLKEAHVRLYPSSRCTSQHLLNRTVTDNMLCAGDTRSGGPQANLHDACQGDSGGPLVCLNDGRMTLVGIISWGLGCGQKDVPGVYTKVTNYLDWIRDNMRP
enzymatic activity without fibrinogen [1]: Without fibrinogen no enzymatic activity of the r-K2S purified from culture supernatant was observed | copolymerized plasminogen polyacrylamide gel electrophoresis (plasminogen): Transparent areas of serine protease digested plasminogen were observed only in the ammonium sulfate precipitated culture supernatants of XM[K2S] at 34 and 37 kDa postions | fibrinogen-dependent enzymatic activity (culture supernatant r-K2S) (plasminogen): 7 IU/ml | fibrinogen-dependent enzymatic activity (periplasmic r-K2S) (plasminogen): notably low enzymatic activity, which was below the sensitivity of the test (0.25 IU/ml)
